From paper PMC10364083, “Dimerization of European Robin Cryptochrome 4a” (The Journal of Physical Chemistry. B, 2023)
Several values for one entry are separate records, joined by “and”; a condition that tells them apart may be missing. Equal entries are not always repeated. Values belong to the compound of their own block, whether it stands above or below them.

How the values were obtained:
ErCry4a = target: T1, ErCry4a (Erithacus rubecula, UniProt A0A2I4SZI9); test: native mass spectrometry of holoprotein; assay type: binding; conditions: co-purified non-covalently bound FAD; 200 mM ammonium acetate, pH 8; monomer and dimer
T1 construct: full-length wild type (CTT residues 498-527), N-terminal 10x His-tag kept for native MS, expressed in E. coli; monomer with minor disulfide-linked dimer
T1 sequence (A0A2I4SZI9 1-527): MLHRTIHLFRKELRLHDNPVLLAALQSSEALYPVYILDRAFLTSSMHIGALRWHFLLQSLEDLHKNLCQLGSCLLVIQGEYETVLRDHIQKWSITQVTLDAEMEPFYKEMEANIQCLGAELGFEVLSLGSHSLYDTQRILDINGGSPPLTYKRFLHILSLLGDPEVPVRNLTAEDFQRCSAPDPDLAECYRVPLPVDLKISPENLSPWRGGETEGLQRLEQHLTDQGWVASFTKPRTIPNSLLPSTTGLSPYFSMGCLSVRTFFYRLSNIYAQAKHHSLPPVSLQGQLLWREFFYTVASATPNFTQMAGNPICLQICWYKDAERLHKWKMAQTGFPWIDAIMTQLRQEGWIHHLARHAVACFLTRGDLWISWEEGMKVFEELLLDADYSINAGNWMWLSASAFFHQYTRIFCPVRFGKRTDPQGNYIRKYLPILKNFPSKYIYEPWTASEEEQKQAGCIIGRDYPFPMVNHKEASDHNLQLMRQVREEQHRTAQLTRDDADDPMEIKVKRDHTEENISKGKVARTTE

[1] = target: ErCry4a C317A mutant (European robin (Erithacus rubecula)); test: native MS; 200 mM ammonium acetate, pH 8; nanoflow electrospray, Q Exactive, positive ion mode; micromolar protein concentrations; His-tagged proteins; WT sample of Figure 3A shipped with 10 mM BME
[2] = target: ErCry4a C412A + C317A mutant (European robin (Erithacus rubecula)); test: as above
[3] = target: ErCry4a C412A mutant (European robin (Erithacus rubecula)); test: as above
[4] = target: European robin cryptochrome 4a (Erithacus rubecula Cry4a), wild type, with N-terminal 10x His-tag (European robin (Erithacus rubecula)); test: mass photometry; 44 nM ErCry4a WT in 200 mM ammonium acetate, pH 8.3; sample shipped with 2 mM DTT; ONE-MP instrument
[5] = target: European robin cryptochrome 4a (Erithacus rubecula Cry4a), wild type, with N-terminal 10x His-tag (European robin (Erithacus rubecula)); test: native MS; 200 mM ammonium acetate, pH 8; nanoflow electrospray, Q Exactive, positive ion mode; micromolar protein concentrations; His-tagged proteins; WT sample of Figure 3A shipped with 10 mM BME
[6] = target: European robin cryptochrome 4a (Erithacus rubecula Cry4a), wild type, with N-terminal 10x His-tag (European robin (Erithacus rubecula)); test: as above; remark: listed apart in the source

Compound: Cc1cc2nc3c(=O)[nH]c(=O)nc-3n(C[C@H](O)[C@H](O)[C@H](O)COP(=O)(O)OP(=O)(O)OC[C@H]3O[C@@H](n4cnc5c(N)ncnc54)[C@H](O)[C@@H]3O)c2cc1C [FAD]
- native mass spectrometry of holoprotein (ErCry4a): the ErCry4a dimers bind FAD and have native MS charge-state distributions

Compound: European robin cryptochrome 4a (Erithacus rubecula Cry4a), wild type, with N-terminal 10x His-tag (natural protein)
- percent of counts in the dimer peak [4]: 11%
- stoichiometry N [4]: 2
- stoichiometry N [5]: 2
- stoichiometry N [6]: 3

Now from value to compound:

- stoichiometry N [1]: 2 and 3
Compound: ErCry4a C317A mutant (natural protein)

- stoichiometry N [2]: 2 and 3
Compound: ErCry4a C412A + C317A mutant (natural protein)

- stoichiometry N [3]: 2 and 3
Compound: ErCry4a C412A mutant (natural protein)
